Reference: patent US20170074883A1

What was measured:
[1] = biological target: CD38 on the surface of the HCL cell line JOK-1 and its derivatives (JOK-Empty, JOK-RhoH, JOK-CD38-WT) (human) (UniProt P28907); assay: flow cytometry, FITC-IB6 on JOK-Empty cells (RhoH not induced), mean of 4 experiments
[2] = biological target: CD38 on the surface of the HCL cell line JOK-1 and its derivatives (JOK-Empty, JOK-RhoH, JOK-CD38-WT) (human) (UniProt P28907); assay: flow cytometry, FITC-IB6 on JOK-RhoH cells (RhoH induced, lower CD38 expression), mean of 4 experiments

FITC-conjugated version of the monoclonal antibody IB6 directed against CD38 (Miltenyi Biotec)
mean fluorescence intensity (after subtraction of isotype control) [1]: 71.8 | mean fluorescence intensity (after subtraction of isotype control) [2]: 19.7
